In IntAct's records for PubMed 19411703:

B1: Phospholipid-transporting ATPase DNF1 (Saccharomyces cerevisiae), P32660 (parent)
chain: MSGTFHGDGHAPMSPFEDTFQFEDNSSNEDTHIAPTHFDDGATSNKYSRPQVSFNDETPKNKREDAEEFTFNDDTEYDNHSFQPTPKLNNGSGTFDDVELDNDSGEPHTNYDGMKRFRMGTKRNKKGNPIMGRSKTLKWARKNIPNPFEDFTKDDIDPGAINRAQELRTVYYNMPLPKDMIDEEGNPIMQYPRNKIRTTKYTPLTFLPKNILFQFHNFANVYFLVLIILGAFQIFGVTNPGLSAVPLVVIVIITAIKDAIEDSRRTVLDLEVNNTKTHILEGVENENVSTDNISLWRRFKKANSRLLFKFIQYCKEHLTEEGKKKRMQRKRHELRVQKTVGTSGPRSSLDSIDSYRVSADYGRPSLDYDNLEQGAGEANIVDRSLPPRTDCKFAKNYWKGVKVGDIVRIHNNDEIPADIILLSTSDTDGACYVETKNLDGETNLKVRQSLKCTNTIRTSKDIARTKFWIESEGPHSNLYTYQGNMKWRNLADGEIRNEPITINNVLLRGCTLRNTKWAMGVVMFTGGDTKIMLNSGITPTKKSRISRELNFSVVINFVLLFILCFVSGIANGVYYDKKGRSRFSYEFGTIAGSAATNGFVSFWVAVILYQSLVPISLYISVEIIKTAQAAFIYGDVLLYNAKLDYPCTPKSWNISDDLGQVEYIFSDKTGTLTQNVMEFKKCTINGVSYGRAYTEALAGLRKRQGIDVETEGRREKAEIAKDRDTMIDELRALSGNSQFYPEEVTFVSKEFVRDLKGASGEVQQRCCEHFMLALALCHSVLVEANPDNPKKLDLKAQSPDEAALVATARDVGFSFVGKTKKGLIIEMQGIQKEFEILNILEFNSSRKRMSCIVKIPGLNPGDEPRALLICKGADSIIYSRLSRQSGSNSEAILEKTALHLEQYATEGLRTLCIAQRELSWSEYEKWNEKYDIAAASLANREDELEVVADSIERELILLGGTAIEDRLQDGVPDCIELLAEAGIKLWVLTGDKVETAINIGFSCNLLNNEMELLVIKTTGDDVKEFGSEPSEIVDALLSKYLKEYFNLTGSEEEIFEAKKDHEFPKGNYAIVIDGDALKLALYGEDIRRKFLLLCKNCRAVLCCRVSPSQKAAVVKLVKDSLDVMTLAIGDGSNDVAMIQSADVGIGIAGEEGRQAVMCSDYAIGQFRYLARLVLVHGRWSYKRLAEMIPEFFYKNMIFALALFWYGIYNDFDGSYLYEYTYMMFYNLAFTSLPVIFLGILDQDVNDTISLVVPQLYRVGILRKEWNQRKFLWYMLDGLYQSIICFFFPYLVYHKNMIVTSNGLGLDHRYFVGVYVTTIAVISCNTYVLLHQYRWDWFSGLFIALSCLVVFAWTGIWSSAIASREFFKAAARIYGAPSFWAVFFVAVLFCLLPRFTYDSFQKFFYPTDVEIVREMWQHGHFDHYPPGYDPTDPNRPKVTKAGQHGEKIIEGIALSDNLGGSNYSRDSVVTEEIPMTFMHGEDGSPSGYQKQETWMTSPKETQDLLQSPQFQQAQTFGRGPSTNVRSSLDRTREQMIATNQLDNRYSVERARTSLDLPGVTNAASLIGTQQNN
partner: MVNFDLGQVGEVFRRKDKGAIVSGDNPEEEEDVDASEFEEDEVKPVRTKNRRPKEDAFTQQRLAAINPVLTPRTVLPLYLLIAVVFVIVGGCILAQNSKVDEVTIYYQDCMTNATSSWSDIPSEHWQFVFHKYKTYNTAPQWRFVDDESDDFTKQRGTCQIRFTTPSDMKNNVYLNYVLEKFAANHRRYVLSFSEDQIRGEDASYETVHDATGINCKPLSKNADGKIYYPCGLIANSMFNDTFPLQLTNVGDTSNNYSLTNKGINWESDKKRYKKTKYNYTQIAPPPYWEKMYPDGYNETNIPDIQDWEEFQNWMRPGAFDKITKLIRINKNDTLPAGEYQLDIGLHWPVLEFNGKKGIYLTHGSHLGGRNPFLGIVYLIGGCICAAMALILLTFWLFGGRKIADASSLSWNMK
B2: Phospholipid-transporting ATPase DRS2 (Saccharomyces cerevisiae), P39524 (parent)
chain: MNDDRETPPKRKPGEDDTLFDIDFLDDTTSHSGSRSKVTNSHANANYIPPSHVLPEETIDLDADDDNIENDVHENLFMSNNHDDQTSWNANRFDSDAYQPQSLRAVKPPGLFARFGNGLKNAFTFKRKKGPESFEMNHYNAVTNNELDDNYLDSRNKFNIKILFNRYILRKNVGDAEGNGEPRVIHINDSLANSSFGYSDNHISTTKYNFATFLPKFLFQEFSKYANLFFLCTSAIQQVPHVSPTNRYTTIGTLLVVLIVSAMKECIEDIKRANSDKELNNSTAEIFSEAHDDFVEKRWIDIRVGDIIRVKSEEPIPADTIILSSSEPEGLCYIETANLDGETNLKIKQSRVETAKFIDVKTLKNMNGKVVSEQPNSSLYTYEGTMTLNDRQIPLSPDQMILRGATLRNTAWIFGLVIFTGHETKLLRNATATPIKRTAVEKIINRQIIALFTVLIVLILISSIGNVIMSTADAKHLSYLYLEGTNKAGLFFKDFLTFWILFSNLVPISLFVTVELIKYYQAFMIGSDLDLYYEKTDTPTVVRTSSLVEELGQIEYIFSDKTGTLTRNIMEFKSCSIAGHCYIDKIPEDKTATVEDGIEVGYRKFDDLKKKLNDPSDEDSPIINDFLTLLATCHTVIPEFQSDGSIKYQAASPDEGALVQGGADLGYKFIIRKPNSVTVLLEETGEEKEYQLLNICEFNSTRKRMSAIFRFPDGSIKLFCKGADTVILERLDDEANQYVEATMRHLEDYASEGLRTLCLAMRDISEGEYEEWNSIYNEAATTLDNRAEKLDEAANLIEKNLILIGATAIEDKLQDGVPETIHTLQEAGIKIWVLTGDRQETAINIGMSCRLLSEDMNLLIINEETRDDTERNLLEKINALNEHQLSTHDMNTLALVIDGKSLGFALEPELEDYLLTVAKLCKAVICCRVSPLQKALVVKMVKRKSSSLLLAIGDGANDVSMIQAAHVGVGISGMEGMQAARSADIAVGQFKFLKKLLLVHGSWSYQRISVAILYSFYKNTALYMTQFWYVFANAFSGQSIMESWTMSFYNLFFTVWPPFVIGVFDQFVSSRLLERYPQLYKLGQKGQFFSVYIFWGWIINGFFHSAIVFIGTILIYRYGFALNMHGELADHWSWGVTVYTTSVIIVLGKAALVTNQWTKFTLIAIPGSLLFWLIFFPIYASIFPHANISREYYGVVKHTYGSGVFWLTLIVLPIFALVRDFLWKYYKRMYEPETYHVIQEMQKYNISDSRPHVQQFQNAIRKVRQVQRMKKQRGFAFSQAEEGGQEKIVRMYDTTQKRGKYGELQDASANPFNDNNGLGSNDFESAEPFIENPFADGNQNSNRFSSSRDDISFDI
partner: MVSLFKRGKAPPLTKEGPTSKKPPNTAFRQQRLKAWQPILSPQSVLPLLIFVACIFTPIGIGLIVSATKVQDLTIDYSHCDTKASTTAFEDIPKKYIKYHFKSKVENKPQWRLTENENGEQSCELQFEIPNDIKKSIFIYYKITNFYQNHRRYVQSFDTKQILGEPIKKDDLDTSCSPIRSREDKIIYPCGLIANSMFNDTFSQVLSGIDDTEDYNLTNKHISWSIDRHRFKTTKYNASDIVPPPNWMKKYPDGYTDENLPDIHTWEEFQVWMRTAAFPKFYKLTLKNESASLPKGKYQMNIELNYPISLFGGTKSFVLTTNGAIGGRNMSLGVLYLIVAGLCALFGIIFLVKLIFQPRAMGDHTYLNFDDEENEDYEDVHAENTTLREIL

Variants of: B1
Conditions: with lem3_yeast LEM3, P42838

effect of a mutation on the interaction | Variant
disrupting interaction strength | D667E
disrupting interaction strength | D667N

Variants of: B2
Conditions: with cdc50_yeast CDC50, P25656

effect of a mutation on the interaction | Variant
decreasing interaction strength | D560N

Variants of: B2
Conditions: with cdc50_yeast CDC50, P25656
Remark: another data set of the same source

effect of a mutation on the interaction | Variant
decreasing interaction strength | D560E
with no effect | E342Q
decreasing interaction strength | G341L
